Measured values published in patent US20220177564A1 (Ablynx, published 2022).
Changes are numbered by the printed parent chain. Names and notes keep the numbering of the source. Read-outs that look alike come from different tables or passages of the source.

How the values were obtained:
human IL-13 [1] = target: T1, human IL-13 (human, UniProt P35225 35-146, limits assumed); assay: AlphaScreen; hIL-13 to hIL-13Rα1-hFc
T1 construct: Biotinylated in the binary complex AlphaScreen; Different commercial lots are kept as one molecule; also called hIL-13; hIL13

human IL-13 [2] = target: T1, human IL-13; assay: AlphaScreen; hIL-13:hIL-13Rα1:hIL4Rα ternary complex
human IL-13 [3] = target: T1, human IL-13; assay: cell-based or functional assay
cyno IL-13 [4] = target: T2, cyno IL-13 (cynomolgus monkey, UniProt Q0PW92 21-132); assay: cell-based or functional assay
human IL-13 [5] = target: T1, human IL-13; assay: cell-based or functional assay; remark: listed apart in the source
cyno IL-13 [6] = target: T2, cyno IL-13; assay: cell-based or functional assay; remark: listed apart in the source
hTSLP-Fc [7] = target: T3, hTSLP-Fc (human, UniProt Q969D9 29-159); assay: SPR, hTSLP-hFc
T3 construct: also called hTSLP-hFc; hTLSP-Fc; not shown: human Fc part and any linker not described

cyno TSLP [8] = target: T4, cyno TSLP (cynomolgus monkey, UniProt A0A7N9CAT7 29-159); assay: SPR, cyno TSLP
T4 construct: also called cynomolgus monkey TSLP

cyno TSLP-Fc [9] = target: T5, cyno TSLP-Fc (cynomolgus monkey, UniProt A0A7N9CAT7 29-159); assay: SPR; the KD column is on cyno TSLP-hFc
T5 construct: also called cyno TSLP-hFc; not shown: human Fc part and any linker not described

human TSLP [10] = target: T6, human TSLP (human, UniProt Q969D9 29-159); assay: SPR, hTSLP
T6 construct: also called hTSLP; hTSP

cyno TSLP-Fc [11] = target: T5, cyno TSLP-Fc; assay: SPR, cyno TSLP-hFc
human IL-13 [12] = target: T1, human IL-13; assay: SPR, hIL-13 from Peprotech (cat nr 200-13)
human IL-13 [13] = target: T1, human IL-13; assay: cell-based or functional assay; remark: listed apart in the source
human TSLP [14] = target: T6, human TSLP; assay: AlphaScreen; hTSLP:hTSLPR:hIL7Rα ternary complex
human TSLP [15] = target: T6, human TSLP; assay: SPR, hTSLP; remark: listed apart in the source
cyno TSLP [16] = target: T4, cyno TSLP; assay: SPR, cyno TSLP; remark: listed apart in the source
human TSLP [17] = target: T6, human TSLP; assay: AlphaScreen, purified ISVD; hTSLP:hTSLPR:hIL7Rα ternary complex
cyno TSLP-Fc [18] = target: T5, cyno TSLP-Fc; assay: cell-based or functional assay
hTSLP-Fc [19] = target: T3, hTSLP-Fc; assay: cell-based or functional assay
cyno TSLP-Fc [20] = target: T5, cyno TSLP-Fc; assay: SPR (BIAcore T100), Fc fusion captured by anti-huIgG
hTSLP-Fc [21] = target: T3, hTSLP-Fc; assay: as above
human TSLP [22] = target: T6, human TSLP; assay: AlphaScreen, purified ISVD; hTSLP to hTSLPR
cyno TSLP-Fc [23] = target: T5, cyno TSLP-Fc; assay: SPR (ProteOn XPR36), periplasmic extract over immobilised Fc fusion
hTSLP-Fc [24] = target: T3, hTSLP-Fc; assay: as above
human IL-13 [25] = target: T1, human IL-13; assay: cell-based or functional assay; remark: listed apart in the source
human IL-13 [26] = target: T1, human IL-13; assay: AlphaScreen, purified ISVD; hIL-13:hIL-13Rα1:hIL4Rα ternary complex
human IL-13 [27] = target: T1, human IL-13; assay: SPR, hIL-13
human IL-13 [28] = target: T1, human IL-13; assay: AlphaScreen, purified ISVD; hIL-13 to hIL-13Rα1-hFc
hIL13-Fc = target: T7, hIL13-Fc (human, UniProt P35225 25-146); assay: SPR (ProteOn XPR36), periplasmic extract over immobilised Fc fusion
T7 construct: not shown: Fc part and any linker not described

cyno IL13-Fc = target: T8, cyno IL13-Fc (cynomolgus monkey, UniProt Q0PW92 11-132); assay: as above
T8 construct: not shown: Fc part and any linker not described

human IL-13 [29] = target: T1, human IL-13; assay: SPR, hIL-13 from Peprotech (cat nr 200-13); remark: listed apart in the source

B1: F010700014 (VHH)
chain: EVQLVESGGGLVQAGGSLRLSCAASGRTFSSYRMGWFRQAPGKEREFVAALSGDGYSTYTANSVNSRFTISRDNAKNTVYLQMNSLKPEDTAIYYCAAKLQYVSGWSYDYPYWGQGTLVTVSSGGGGSGGGGSGGGGSGGGGSGGGGSGGGGSGGGGSEVQLVESGGGLVQAGGSLRLSCAASGRTFSSYRMGWFRQAPGKEREFVAALSGDGYSTYTANSVNSRFTISRDNAKNTVYLQMNSLKPEDTAIYYCAAKLQYVSGWSYDYPYWGQGTLVTVSS
notes: Bivalent anti-IL-13 construct of two VHHs, Pichia pastoris, FLAG3-HIS6-tagged; also called F0107004B02-35GS-F0107004B02; not shown: FLAG3-HIS6 tag
% inhibition (human IL-13 [1]): 84%
IC50 (human IL-13 [1]): 0.27 nM
% inhibition (human IL-13 [2]): 98%
IC50 (human IL-13 [2]): 4.8 nM
IC50, TF1 proliferation assay, 200 pM hIL13 (human IL-13 [3]): 9.4e-08 M

B2: F010700031 (VHH)
chain: EVQLVESGGGLVQPGGSLRLSCAASGFTFNNYAMKWVRQAPGKGLEWVSSITTGGGSTDYADSVKGRFTISRDNRKNTLYLQMNSLKPEDTAVYYCANVPFGYYSEHFSGLSFDYRGQGTLVTVSSGGGGSGGGGSGGGGSGGGGSGGGGSGGGGSGGGGSEVQLVESGGGLVQPGGSLRLSCAASGFTFNNYAMKWVRQAPGKGLEWVSSITTGGGSTDYADSVKGRFTISRDNRKNTLYLQMNSLKPEDTAVYYCANVPFGYYSEHFSGLSFDYRGQGTLVTVSS
notes: Bivalent anti-IL-13 construct of two VHHs, Pichia pastoris, FLAG3-HIS6-tagged; also called F0107004B06-35GS-F0107004B06; not shown: FLAG3-HIS6 tag
% inhibition (human IL-13 [2]): 99%
IC50 (human IL-13 [2]): 0.66 nM
IC50, TF1 proliferation assay, 200 pM hIL13 (human IL-13 [3]): 1e-07 M

B3: F010700029 (bispecific antibody)
chain: EVQLVESGGGLVQAGGSLRLSCAASGRTFSSYRMGWFRQAPGKEREFVAALSGDGYSTYTANSVNSRFTISRDNAKNTVYLQMNSLKPEDTAIYYCAAKLQYVSGWSYDYPYWGQGTLVTVSSGGGGSGGGGSGGGGSGGGGSGGGGSGGGGSGGGGSEVQLVESGGGLVQPGGSLRLSCAASGFTFNNYAMKWVRQAPGKGLEWVSSITTGGGSTDYADSVKGRFTISRDNRKNTLYLQMNSLKPEDTAVYYCANVPFGYYSEHFSGLSFDYRGQGTLVTVSS
notes: Biparatopic anti-IL-13 construct of two VHHs, Pichia pastoris, FLAG3-HIS6-tagged; also called F0107004B02-35GS-F0107004B06; not shown: FLAG3-HIS6 tag
% inhibition (human IL-13 [1]): 99%
IC50 (human IL-13 [1]): 0.31 nM
% inhibition (human IL-13 [2]): 100%
IC50 (human IL-13 [2]): 3 nM
IC50, IL-13 induced A549 eotaxin release assay (cyno IL-13 [4]): 0.15 nM
IC50, IL-13 induced A549 eotaxin release assay (human IL-13 [5]): 0.21 nM
IC50, TF1 proliferation assay, 200 pM cyno IL13 (cyno IL-13 [6]): 2.5e-10 M
IC50, TF1 proliferation assay, 200 pM hIL13 (human IL-13 [3]): 2e-11 M

B4: F010704099 (VHH)
VHH: EVQLVESGGGLVQPGGSLRLSCAASGFTFADYDYDIGWFRQAPGKEREGVSCISNRDGSTYYADSVKGRFTISRDNSKNTVYLQMNSLRPEDTAVYYCAVEIHCDDYGVENFDFDPWGQGTLVTVSS
notes: E. coli, IMAC; also called F0107529F10 (A14P, T60A, S71R, A74S, S79Y, K83R)
Kd (hTSLP-Fc [7]): 0.038 nM
koff (cyno TSLP [8]): 0.0018 s⁻¹
fold lower affinity against parental ISVD F0107529F10 (cyno TSLP-Fc [9]): 2 fold
koff (human TSLP [10]): 7.7e-05 s⁻¹
Kd (cyno TSLP-Fc [11]): 3.3 nM

B5: F027100019 (VHH)
VHH: DVQLVESGGGVVQPGGSLRLSCAASGRTFSSYRMGWFRQAPGKEREFVAALSGDGYSTYTANSVKGRFTISRDNSKNTVYLQMNSLRPEDTALYYCAAKLQYVSGWSYDYPYWGQGTLVTVSS
notes: Expressed in E. coli, purified by IMAC; also called F0107004B02 (E1D, L11V, A14P, N64K, S65G, A74S, K83R, I89L)
Kd (human IL-13 [12]): 34 nM
koff (human IL-13 [12]): 0.0012 s⁻¹
kon (human IL-13 [12]): 35000 M⁻¹ s⁻¹
IC50 (nM) Eotaxin release assay (human IL-13 [13]): 47 nM

B6: F010704076 (VHH)
VHH: EVQLVESGGGLVQPGGSLRLSCAASGSGFGVNILYWYRQAAGIERELIASITSGGITNYVDSVKGRFTISRDNSENTMYLQMNSLRAEDTGVYYCASRNIFDGTTEWGQGTLVTVSS
notes: E. coli, IMAC; also called F0107501A02 (A14P, E16G, A74S, K83R)
IC50 (human TSLP [14]): 0.27 nM
koff (human TSLP [15]): 6.2e-05 s⁻¹
koff (cyno TSLP [16]): 0.0016 s⁻¹

B7: F0107501A02 (VHH)
VHH: B6 VHH with P14A, G16E, S74A, R86K
notes: Wild-type anti-TSLP ISVD; not shown: c-myc, His6 tag of the purified protein
IC50 (human TSLP [17]): 0.35 nM
IC50 (human TSLP [14]): 0.28 nM
IC50, TSLP-induced BaF3 cell proliferation assay (cyno TSLP-Fc [18]): > 1000 nM
IC50, TSLP-induced BaF3 cell proliferation assay (hTSLP-Fc [19]): > 1000 nM
koff (human TSLP [15]): 5.4e-05 s⁻¹
Kd (cyno TSLP-Fc [20]): 25 nM
koff (cyno TSLP-Fc [20]): 0.0018 s⁻¹
kon (cyno TSLP-Fc [20]): 73000 M⁻¹ s⁻¹
Kd (hTSLP-Fc [21]): 0.51 nM
koff (hTSLP-Fc [21]): 5.7e-05 s⁻¹
kon (hTSLP-Fc [21]): 110000 M⁻¹ s⁻¹
IC50 (human TSLP [22]): 0.3 nM
koff (cyno TSLP [16]): 0.0015 s⁻¹
koff (cyno TSLP-Fc [23]): 0.00066 s⁻¹
koff (hTSLP-Fc [24]): 3.6e-05 s⁻¹

B8: F027400160 (VHH)
VHH: B6 VHH with L11V, V92L
notes: E. coli, IMAC; also called F0107501A02 (L11V, A14P, E16G, A74S, K83R, V89L)
koff (human TSLP [15]): 0.00012 s⁻¹
koff (cyno TSLP [16]): 0.0043 s⁻¹

B9: F010700003 (bispecific antibody)
chain: EVQLVESGGGLVQPGGSLRLSCAASGFTFNNYAMKWVRQAPGKGLEWVSSITTGGGSTDYADSVKGRFTISRDNRKNTLYLQMNSLKPEDTAVYYCANVPFGYYSEHFSGLSFDYRGQGTLVTVSSGGGGSGGGGSGGGGSGGGGSGGGGSGGGGSGGGGSEVQLVESGGGLVQAGGSLRLSCAASGRTFSSYRMGWFRQAPGKEREFVAALSGDGYSTYTANSVNSRFTISRDNAKNTVYLQMNSLKPEDTAIYYCAAKLQYVSGWSYDYPYWGQGTLVTVSS
notes: Biparatopic anti-IL-13 construct of two VHHs, expressed in Pichia pastoris as FLAG3-HIS6-tagged protein; also called F0107004B06-35GS-F0107004B02; not shown: FLAG3-HIS6 tag
% inhibition (human IL-13 [1]): 99%
IC50 (human IL-13 [1]): 0.13 nM
% inhibition (human IL-13 [2]): 100%
IC50 (human IL-13 [2]): 3.4 nM
IC50, TF1 proliferation assay, 200 pM hIL13 (human IL-13 [3]): 1.2e-08 M

B10: F0107004B06 (VHH)
VHH: EVQLVESGGGLVQPGGSLRLSCAASGFTFNNYAMKWVRQAPGKGLEWVSSITTGGGSTDYADSVKGRFTISRDNRKNTLYLQMNSLKPEDTAVYYCANVPFGYYSEHFSGLSFDYRGQGTLVTVSS
notes: Wild-type anti-IL-13 ISVD; also called F010704B06; F107004B06; not shown: c-myc, His6 tag of the purified protein
IC50, IL-13-induced TF-1 proliferation assay (human IL-13 [25]): 10000 nM
IC50 (human IL-13 [26]): 6.7 nM
Kd (human IL-13 [27]): 26 nM
koff (human IL-13 [27]): 0.0033 s⁻¹
kon (human IL-13 [27]): 250000 M⁻¹ s⁻¹
IC50 (human IL-13 [28]): 61 nM
koff (hIL13-Fc): 0.0063 s⁻¹
koff (cyno IL13-Fc): 0.0089 s⁻¹

B11: F027100183 (VHH)
VHH: B10 VHH with L11V, R75S, K87R, V93L
notes: E. coli, IMAC; also called F0107004B06 (L11V, R74S, K83R, V89L)
Kd (human IL-13 [29]): 27 nM
koff (human IL-13 [29]): 0.0075 s⁻¹
kon (human IL-13 [29]): 280000 M⁻¹ s⁻¹
